The source of these data is patent US20230035798A1 (CAPELLA BIOSCIENCE, published 2023).

Experiment [1] has as its target T1, human LIGHT (TNFSF14), full length, membrane-bound (214E allele) (human, UniProt O43557 1-240).
T1 construct: also called membrane LIGHT; human membrane LIGHT
Briefly: competition with biotin-HVEM:Fc, HEK293FF LIGHT cells, flow cytometry. The method, then:
(§1) The ability of the 7 chimeric mAbs to block biotin-HVEM:Fc and biotin-LTβR:Fc fusion proteins to cell surface expressed LIGHT using a flow cytometric based assay is shown in FIGS. 1A and 1B respectively. In these experiments, graded amounts of each antibody were added to the HEK293FF cells transiently transfected with LIGHT with a 50% saturating amount of the receptor fusion protein. As shown, each of the antibodies blocked either receptor fusion protein from binding LIGHT, in contrast to the irrelevant antibody control which had no effect on either Fc-receptor fusion protein binding. In each experiment, all antibodies blocked receptor binding in a dose dependent manner enabling analysis by non-linear regression to determine the IC50 dose as shown in Table 11A.
For orientation: In flow cytometry, cells or beads pass a laser one at a time.

Experiment [2] concerns the target T1, human LIGHT (TNFSF14), full length, …. Briefly: flow cytometry, transiently transfected HEK293FF cells. An excerpt: (§2) In order to compare the cross-reactivity of the mAbs to both human and cynomolgus LIGHT, transiently transfected human or cynomolgus LIGHT-HEK293FF cells were utilised in which approximately 50% of the cells expressed LIGHT and bound mAb was detected with goat anti-human IgG FITC. The EC50 of each mAb is depicted in Table 6 after correction for background binding to untransfected cells. (Note that when the relationship between receptor occupancy and response is linear, EC50 may be equivalent or substantially equivalent to KD).

The target in experiment [3] is T2, cynomolgus (Macaca fascicularis) LIGHT, membrane-bound (cynomolgus (Macaca fascicularis), UniProt E9NVF7 1-240).
T2 construct: whole, on cells; also called cynomolgus membrane LIGHT; HEK293FF-cynomolgus LIGHT cells
T2 sequence (E9NVF7 entry or part of it): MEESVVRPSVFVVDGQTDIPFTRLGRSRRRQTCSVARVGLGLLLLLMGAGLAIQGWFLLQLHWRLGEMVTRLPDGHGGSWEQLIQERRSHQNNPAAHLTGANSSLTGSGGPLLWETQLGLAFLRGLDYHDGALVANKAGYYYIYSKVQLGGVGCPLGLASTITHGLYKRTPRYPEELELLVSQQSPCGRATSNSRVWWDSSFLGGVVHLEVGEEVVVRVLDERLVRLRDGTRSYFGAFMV
The experiment is described as above.
From the text: as §2

The target of another experiment is T3, membrane LIGHT W197A (human, UniProt O43557 1-240).
T3 chain: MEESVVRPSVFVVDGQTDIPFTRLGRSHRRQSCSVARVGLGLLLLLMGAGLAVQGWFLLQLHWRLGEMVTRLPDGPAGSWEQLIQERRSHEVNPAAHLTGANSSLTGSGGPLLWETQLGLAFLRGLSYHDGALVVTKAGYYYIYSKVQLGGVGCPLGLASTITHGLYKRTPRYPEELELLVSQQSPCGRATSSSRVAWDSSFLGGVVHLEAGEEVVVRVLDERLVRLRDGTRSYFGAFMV
In words: flow cytometry, transfected HEK293FF, mAb at EC50. The procedure: The day of transfection the cells were seeded in a 24-well plate at 0.6×10⁶ cells/well. Lipofectamine 2000 (ThermoFisher scientific), 3 μl, was mixed with 50 μl OptiMEM medium (GIBCO) and then added to 50 μl Opti-MEM medium containing 3 ug plasmid DNA and incubated for 20 min at RT to form DNA-Lipofectamine 2000 complexes which were then added to the HEK293FF cells and incubated at 37° C., 5% CO₂ for 24 hours. For each construct, in duplicate, 0.60×10⁶ cells/well were used in a 96 well round bottom plate. Cells were centrifuged for 3 minutes at 300×g at 4° C., the supernatant discarded and the cells washed with 150 μl FACS buffer (0.5% FBS in phosphate buffered saline). This process was repeated 3 times. […] The wells were washed 3 times as above and 50 μl/well of goat anti-human IgG FITC (1:1500 dilution in FACS buffer, SIGMA F9512-2ML) or goat anti-mouse APC (1/500 dilution in FACS buffer, BDBioscience 550826), as appropriate, was added to the wells and incubated for 30 min at 4° C. protected from the light, with shaking. The cells were then washed as above, resuspended in 100 μl of FACS buffer and binding of the antibodies to the constructs was measured using flow cytometry and a total of 10,000 cells were acquired for each sample. Controls of buffer and secondary antibody only as well as HEK293FF non transfected cells were also used.

For experiment [4], the target named is T1, human LIGHT (TNFSF14), full length, …. Briefly: competition with biotin-LTβR:Fc, HEK293FF LIGHT cells, flow cytometry. The method, then: as §1
The target is the same in experiment [5]. Briefly: DcR3-His (1 nM) competition, EL4-LIGHT, flow cytometry; 3.7 nM. The procedure:
(§3) EL4-LIGHT cells (0.25×10⁶) were preincubated with anti-membrane LIGHT mAbs (0-300 nM) for 15 min at 4° C. followed by incubation with DcR3-His tagged (1 nM, Creative BioMart; ref: TNFRSF6B-552H, lot: 962512) for 30 min at 4° C. The samples were then incubated with mouse anti-histag antibody (diluted 1:500, Biolegend, cat. no. 652502) for 30 minutes at 4° C., followed by incubation with anti-mouse APC (dil 1:500, BDBiosciences, cat. no. 550826) for 30 minutes at 4° C. The tubes were washed three times after each of the detection antibody stages and flow cytometry analysis was performed. Specific mean fluorescence intensity (MFI) obtained from the binding of DcR3-His to LIGHT on EL4 cells were used to determine the levels of competition binding.
(§4) In humans, LIGHT is neutralized by DcR3, a unique soluble member of the TNFR superfamily, which tightly binds LIGHT (both soluble and membrane forms) and inhibits its interactions with HVEM and LTβR. A major binding determinant for DcR3 neutralization is the region T170-E178 on LIGHT (Liu et al. Structure 2014: 9; 1252-1262). […] In contrast the anti-LIGHT mAb F19, (from EP2292663) which binds both soluble LIGHT and membrane LIGHT equally well completely displaces DcR3 from binding to membrane LIGHT highlighting a surprising an important functional difference between the anti-membrane LIGHT mAbs of this invention and other neutralizing anti-LIGHT mAbs that have been raised against or screened against soluble LIGHT.

Experiment [6] shares this target. In words: DcR3-His (1 nM) competition, EL4-LIGHT, flow cytometry; 100 nM. The procedure:
as §3, §4

T1 sequence (O43557 whole entry K214E): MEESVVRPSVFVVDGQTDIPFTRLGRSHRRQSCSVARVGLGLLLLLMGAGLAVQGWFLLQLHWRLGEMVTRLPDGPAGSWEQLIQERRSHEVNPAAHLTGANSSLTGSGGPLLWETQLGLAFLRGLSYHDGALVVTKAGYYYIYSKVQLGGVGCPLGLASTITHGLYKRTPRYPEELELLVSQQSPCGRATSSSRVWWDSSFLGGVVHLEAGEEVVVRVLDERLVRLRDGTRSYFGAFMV

B1: 3E09 (antibody, V domains shown)
VH: EVQLVESGGGLVKPGGSLKLSCEASGFTFSDYYMYWVRQTPEKRLEWVAAIGDGGIYTYYADTVKGRFTISRDNAKNILYLQMSSLKSNDTAMYYCARGTGDGFAYWGQGTLVTVS
VL: DIVLTQSPASLAVSLGQRATISCRASESVDSYGNSFMHWYQQKPGQPPKLLIYLASNLESGVPARFSGSGSRTDFTLTIDPVEADDAATYYCQQNNEDPYTFGGGTKLEIK
notes: chimeric human IgG4 (S-to-P, L-to-E at 248), human CL; also called Parental 3E09
Consider B1, for which the IC50 (commonly the concentration that inhibits the measured activity by half) in experiment [1] was found to be 36.6 nM; in experiment [4], 12 nM. The EC50 (in general, the concentration needed to bring the measured effect to its halfway point) in experiment [2] came to 1.3 nM; in experiment [3], 0.7 nM. The “binding, % of WT” value with membrane LIGHT W197A is 1%. Besides, the “DcR3-His binding, % of irrelevant mAb” value in experiment [5] worked out at 80.4%; in experiment [6], 65%.

B2: 2E08 (antibody, human IgG4, V domains shown)
VH: QVQMKESGAELVRPGVSVKISCKGSGYTFTDYAIHWVKQSHAKTLEWIGVISTYYGDASYNQKFKGKATMTVDKSSSTAYMELARLTSDDSAIYYCARSRGEYGNYDAMDYWGQGTSVTVSS
VL: DIVLTQSPASLAVSLGQRATISCKASQSVDYDGDSYMNWYQQKPGQPPKLLIYAASNLESGIPARFSGSGSGTDFTLNIHPVEEEDAATYYCQQSNEDPLTFGAGTKLELK
notes: chimeric human IgG4 (S-to-P, L-to-E at 248), human CL; also called Parental 2E08
Regarding B2, the IC50 was determined as 23.8 nM in experiment [1] and 14.4 nM in experiment [4]. The EC50 in experiment [2] and in experiment [3] was 0.3 nM in each case. Besides, the “binding, % of WT” value with membrane LIGHT W197A was determined as 0%. Besides, the “DcR3-His binding, % of irrelevant mAb” value in experiment [5] came out at 66.1%; in experiment [6] it was 53.7%.

B3: 2B11 (antibody, human IgG4, V domains shown)
VH: EVQLVESGAELVRPGVSVKISCKGSGYTFTDYAIHWVKQSHAKSLEWIGVISTYYGDASYNQKFKGKATMTVDKSSSTAYMELARLTSEDSAIYYCARSRGEYGNYDAMDYWGQGTSVTVSS
VL: DIVLTQSPASLAVSLGQRATISCRASESVDSYGNSFMHWYQQKPGQPPKLLIYRASNLESGIPARFSGSGSRTDFTLTINPVEADDVATYYCQQSNEDPYTFGGGTKLEIK
notes: chimeric human IgG4 (S-to-P, L-to-E at 248), human CL; also called Parental 2B11
Take B3: the IC50 in experiment [1] was 2.9 nM; in experiment [4], 2.1 nM. The EC50 was 0.4 nM in experiment [2] and 0.02 nM in experiment [3]. For the same molecule, in the experiment with membrane LIGHT W197A, the “binding, % of WT” value stood at 0%. The “DcR3-His binding, % of irrelevant mAb” value was 78.6% in experiment [5] and 70.6% in experiment [6].

B4: 3A07 (antibody, human IgG4, V domains shown)
VH: QVQLQQSGAELVRPGAPVTLSCKASDYTFTDSEIHWVKQTPVHGLEWIGEIDPETGGTAYNQKFKGKATLTADKSSSTAYMELRSLTSEDSAVYYCSRETDYFFDYWGQGTTLTVSS
VL: ENVLTQSPAIMSASPGEKVTMTCSASSSVSYMYWYQQRPGSSPRLLIYDTSNLASGVPVRFSGSGSGTSYSLTISRMEAEDAATYYCQQWSSYPLTFGSGTKLEIK
notes: chimeric human IgG4 (S-to-P, L-to-E at 248), human CL; also called Parental 3A07
B4: the IC50 in experiment [1] was 2.5 nM; in experiment [4] it was 1.4 nM. Also, the EC50 came to 0.1 nM in experiment [2] and 7.6 nM in experiment [3]. The “binding, % of WT” value in the experiment with membrane LIGHT W197A is 1%. Further, the “DcR3-His binding, % of irrelevant mAb” value in experiment [5] worked out at 89.6%; in experiment [6], 64.2%.

B5: 3B04 (antibody, human IgG4, V domains shown)
VH: QVQLQQPGAELVRPGASVTLSCKASGYTFTDYEMHWVKQTPVHGLEWIGEIDPETGDTAYSQKFKGKATLTADKSSSTAYMEFRSLTSEDSAVYYCSRETDYFFDYWGQGTTLTVSS
VL: DIQMTQTPASLSASVGETVTITCGASENIYGALNWYQRKQGKSPQLLIYGATNLADGMSSRFSGSGSGRQYSLKISSLHPDDFATYYCQNVLTTPWTFGGGTKLEIKR
notes: chimeric: mouse variable domains on human IgG4 HC (S-to-P and L-to-E at 248) and human CL; also called Parental 3B04; 3B04 chimeric
As for B5, the IC50 in experiment [1] was 1.2 nM; in experiment [4] it was 1.1 nM. For the same molecule, the values for the EC50 in experiment [2] and in experiment [3] were 0.2 nM and 0.1 nM, respectively. In addition, the “binding, % of WT” value with membrane LIGHT W197A came to 0%. For the same molecule, the “DcR3-His binding, % of irrelevant mAb” value in experiment [5] came out at 78.5%; in experiment [6] it was 75.8%.

B6: 3D12 (antibody, human IgG4, V domains shown)
VH: QVQLQQPGAELVRPGASVTLSCKASDYTFTDSEIHWVKQTPVHGLEWIGEIDPETGGTAYNQKFKGKATLTADKSSSTAYMELRSLTSEDSAVYYCSRETDYFFDYWGQGTTLTVSS
VL: DIQMTQSPASLSASVGETVTITCGASENIYGALNWYQRKQGKSPQLLIYGATNLADGMSSRFSGSGSGRQYSLKISSLHPDDVATYYCQNVLSTPWTFGGGTKLEIKR
notes: chimeric: mouse variable domains on human IgG4 HC (S-to-P and L-to-E at 248) and human CL; also called Parental 3D12; 3D12 chimeric
Consider B6, for which the IC50 in experiment [1] turned out to be 1 nM; in experiment [4], 0.6 nM. Further, the EC50 in experiment [2] was 0.2 nM; in experiment [3] it was 0.3 nM. In addition, the “binding, % of WT” value in the experiment with membrane LIGHT W197A was found to be 1%. For the same molecule, the “DcR3-His binding, % of irrelevant mAb” value came out at 68.6% in experiment [5] and 80.3% in experiment [6].

B7: 3C10 (antibody, human IgG4, V domains shown)
VH: EVQLQQSGAELVRPGASVTLSCKASDYTFTDSEIHWVKQTPVHGLEWIGEIDPETGGTAYNQKFKGKATLTADKSSSTAYMELRSLTSEDSAVYYCSRETDYFFDYWGQGTTLTVSS
VL: DVVMTQTPAIMSASPGEKVTMTCSASSSVSYMYWYQQKPGSSPRLLIYDTSNLASGVPVRFSGSGSGTSYSLTISRMEAEDAATYYCQQWSSYPLTFGAGTKLELK
notes: chimeric human IgG4 (S-to-P, L-to-E at 248), human CL; also called Parental 3C10
On to B7, for which the IC50 worked out at 2.1 nM in experiment [1] and 1.9 nM in experiment [4]. Moreover, the EC50 in experiment [2] was 0.2 nM; in experiment [3], 10.3 nM. Moreover, the “binding, % of WT” value with membrane LIGHT W197A was 0%. The figures for the “DcR3-His binding, % of irrelevant mAb” value in experiment [5] and in experiment [6] were 86.9% and 63.8%, respectively.
